These results are taken from the supplement of paper PMC9732359.

± gives the uncertainty stated by the source.

The data set is described as follows: protein stability index of a GFP-peptide fusion (yeast GPS) (PSI 1-4); higher = more stable; sorted into four equal gates, so the index is relative within each strain. In a few lines:
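Sequencing reads from sorted gates were used to score each peptide. The library consisted of tiled 17-residue yeast protein peptides fused downstream of GFP on a Cherry-expressing plasmid, pooled and carried in yeast. Mid-log cultures in leucine-free medium were split into four equal gates by GFP/Cherry ratio, and each gate's plasmids were PCR-amplified and Illumina-sequenced. The protein stability index adds up, over all gates, the read frequency multiplied by the gate number.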

Consider TINGKVNGRTKSNTIPV [GAL11], for which the protein stability index runs as follows: (doa10∆) 3 ± 0.091; (pdr5∆) 2.77 ± 0.12; (san1∆) 3.02 ± 0.099; (ubr1∆) 3.19 ± 0.097.

Take EAQDEASLQQQQQQDLQ [SNF6]: the protein stability index reads like this: (doa10∆) 3.27 ± 0.14; (pdr5∆) 3.15 ± 0.1; (san1∆) 3.12 ± 0.073; (ubr1∆) 3.2 ± 0.18.

On to SSFTFGSTTIEKKNDEN [YLR335W/NUP2], for which the protein stability index by setting is: (doa10∆) 2.79 ± 0.084; (pdr5∆) 2.49 ± 0.094; (san1∆) 3.08 ± 0.063; (ubr1∆) 2.99 ± 0.046.

As for STAAAPIAAPKKPRKPR [PGD1], the protein stability index (doa10∆) worked out at 2.72 ± 0.086, the protein stability index (pdr5∆) amounted to 3.11 ± 0.076, the protein stability index (san1∆) worked out at 2.75 ± 0.057 and the protein stability index (ubr1∆) came out at 3.15 ± 0.039.

On to LKKFRESLVHSALCILK [BRR2], for which the protein stability index reads like this: (doa10∆) 3.21 ± 0.12; (pdr5∆) 2.1 ± 0.073; (san1∆) 2.86 ± 0.078; (ubr1∆) 2.97 ± 0.066.

Regarding PYLLPYILEAEAAAKEK [QCR7], the protein stability index reads like this: (doa10∆) 1.39 ± 0.07; (pdr5∆) 1.26 ± 0.062; (san1∆) 1.5 ± 0.11; (ubr1∆) 1.19 ± 0.053.

KLSNIWMQRQLIKGDAG [SRB2]: the protein stability index runs as follows: (doa10∆) 2.93 ± 0.23; (pdr5∆) 1.16 ± 0.14; (ubr1∆) 1.25 ± 0.26.

As to SQISPEKQTPNKKDKKK [RPN1], the protein stability index runs as follows: (doa10∆) 2.95 ± 0.063; (pdr5∆) 2.9 ± 0.1; (san1∆) 3.09 ± 0.06; (ubr1∆) 3.12 ± 0.069.

As to KEKWPSLELQSFQKIPL [YML103C/NUP188], the protein stability index was 2.27 ± 0.1 (doa10∆), 2.62 ± 0.12 (pdr5∆), 2.03 ± 0.11 (san1∆) and 2.73 ± 0.11 (ubr1∆).

Regarding IIKENVKVARLAGKYIP [FAS1], the protein stability index came to 1.73 ± 0.23 (doa10∆), 1.6 ± 0.27 (pdr5∆) and 1.82 ± 0.1 (ubr1∆).

ESVPTPANAEPQAVTIT [ITC1]: the protein stability index (doa10∆) stood at 2.88 ± 0.084, the protein stability index (pdr5∆) amounted to 2.92 ± 0.075, the protein stability index (san1∆) worked out at 2.62 ± 0.063 and the protein stability index (ubr1∆) worked out at 3.18 ± 0.16.

For HGMTLRESFEDNVVRFL [RPO21], the protein stability index reads like this: (doa10∆) 3.27 ± 0.098; (pdr5∆) 3.09 ± 0.12; (san1∆) 3.29 ± 0.089; (ubr1∆) 3.17 ± 0.078.

As to VVMAMYNPKMIDDRDYV [RET1], the protein stability index is, setting by setting: (doa10∆) 3.36 ± 0.27; (ubr1∆) 3.45 ± 0.27.

As for TNKLLFKRVSQTFEAKL [NUT1], the protein stability index turned out to be 1.78 ± 0.048 (doa10∆), 1.7 ± 0.046 (pdr5∆), 1.74 ± 0.087 (san1∆) and 1.83 ± 0.04 (ubr1∆).

In the case of YTFKTSMRVKPSASLKL [YMR129W/POM152], the protein stability index by setting is: (doa10∆) 2.42 ± 0.16; (pdr5∆) 2.6 ± 0.11; (san1∆) 2.31 ± 0.14; (ubr1∆) 2.8 ± 0.097.

For the sequence GDIVLTRVTRLSLQRAN [CSL4], the protein stability index is, setting by setting: (doa10∆) 2.14 ± 0.098; (pdr5∆) 1.41 ± 0.093; (san1∆) 1.59 ± 0.16; (ubr1∆) 1.32 ± 0.12.

Turning to NMFELAQQLVGVYKRDN [SMC4], the protein stability index was determined as 1.08 ± 0.11 (doa10∆), 1.61 ± 0.12 (pdr5∆), 1.61 ± 0.16 (san1∆) and 1.37 ± 0.13 (ubr1∆).

For DFILSLLHHVSELDSND [YJL039C/NUP192], the protein stability index (doa10∆) came to 1.93 ± 0.071, the protein stability index (pdr5∆) was determined as 1.88 ± 0.064, the protein stability index (san1∆) came to 1.42 ± 0.11 and the protein stability index (ubr1∆) came to 2.4 ± 0.054.

As for NQFLKIKKKRKELFEKT [SMC1], the protein stability index reads like this: (doa10∆) 3.06 ± 0.15; (pdr5∆) 3 ± 0.11; (san1∆) 2.96 ± 0.12; (ubr1∆) 3.29 ± 0.16.

Turning to PEYEKAMQYVCGDSIIC [SMC1], the protein stability index by setting is: (doa10∆) 1.7 ± 0.1; (pdr5∆) 2.27 ± 0.17; (san1∆) 1.88 ± 0.14; (ubr1∆) 1.89 ± 0.1.

For GAHLLEFQPSGNVTELY [PRE5], the protein stability index by setting is: (doa10∆) 2.54 ± 0.12; (pdr5∆) 2.99 ± 0.076; (san1∆) 2.92 ± 0.12; (ubr1∆) 3.02 ± 0.11.

As to RNETSVDEEDENGTHND [YCG1], the protein stability index (doa10∆) stood at 3.08 ± 0.26.

For the sequence GSEEKAFVPKKRKTNII [SRP54], the protein stability index runs as follows: (doa10∆) 3.12 ± 0.069; (pdr5∆) 3.2 ± 0.077; (san1∆) 2.88 ± 0.067; (ubr1∆) 3.02 ± 0.06.

Regarding ESDSKLQCHISGTTNFM [UBP6], the protein stability index worked out at 2.63 ± 0.23 (doa10∆), 2.69 ± 0.26 (pdr5∆), 2.92 ± 0.28 (san1∆) and 3.08 ± 0.15 (ubr1∆).

Consider STPGGGSVFNMNGNTNA [YOR098C/NUP1], for which the protein stability index is, setting by setting: (doa10∆) 2.87 ± 0.098; (pdr5∆) 3.6 ± 0.2; (ubr1∆) 3.15 ± 0.15.

Consider DELELEDAIHIALLTLK [PRE8], for which the protein stability index (doa10∆) came out at 3.04 ± 0.076, the protein stability index (pdr5∆) was determined as 3.11 ± 0.065, the protein stability index (san1∆) is 3.07 ± 0.062 and the protein stability index (ubr1∆) is 3.15 ± 0.087.

For DELITEGNEKLAAVPAA [RPP2A], the protein stability index was 2.71 ± 0.09 (doa10∆), 2.92 ± 0.099 (pdr5∆), 2.74 ± 0.083 (san1∆) and 2.78 ± 0.09 (ubr1∆).

On to TPEKDLFIGLFTRPLFV [YCS4], for which the protein stability index reads like this: (doa10∆) 1.54 ± 0.084; (pdr5∆) 1.32 ± 0.079; (san1∆) 1.96 ± 0.27; (ubr1∆) 1.45 ± 0.096.

The sequence NDFANNLPKEGDIVLTR [CSL4] displayed a protein stability index (doa10∆) of 2.89 ± 0.15, a protein stability index (pdr5∆) of 3.32 ± 0.17, a protein stability index (san1∆) of 2.44 ± 0.12 and a protein stability index (ubr1∆) of 2.97 ± 0.19.

As for SKVIIKFLQVMQKHGYI [RPS22A], the protein stability index (doa10∆) was 1.95 ± 0.038, the protein stability index (pdr5∆) amounted to 1.84 ± 0.038, the protein stability index (san1∆) was found to be 1.76 ± 0.066 and the protein stability index (ubr1∆) turned out to be 2 ± 0.039.

Take LTNLLSQLNIQLSQDEH [SRP72]: the protein stability index is, setting by setting: (doa10∆) 3.01 ± 0.048; (pdr5∆) 3.03 ± 0.051; (san1∆) 3.21 ± 0.046; (ubr1∆) 3.09 ± 0.042.

In the case of RQQKLLLETKLRQQYEI [SWI1], the protein stability index is, setting by setting: (doa10∆) 3.06 ± 0.11; (pdr5∆) 2.93 ± 0.1; (san1∆) 3.17 ± 0.068; (ubr1∆) 2.91 ± 0.11.

For the sequence NKSISDEITEDMFEMSD [SSN2], the protein stability index by setting is: (doa10∆) 3.03 ± 0.075; (pdr5∆) 3.1 ± 0.075; (san1∆) 2.82 ± 0.058; (ubr1∆) 3.1 ± 0.05.

Take TMTMDVFNDAHVLNKVT [RPN1]: the protein stability index (doa10∆) is 2.26 ± 0.065, the protein stability index (pdr5∆) worked out at 2.25 ± 0.053, the protein stability index (san1∆) is 2.4 ± 0.073 and the protein stability index (ubr1∆) came to 2.25 ± 0.045.

On to QSQQAQPSDVMFNDLNS [MED2], for which the protein stability index worked out at 3.1 ± 0.057 (doa10∆), 3.37 ± 0.078 (pdr5∆), 3.44 ± 0.063 (san1∆) and 3.11 ± 0.095 (ubr1∆).

Sequence NNDKREIQEELERFNKR [SMC1] yielded a protein stability index (doa10∆) of 2.49 ± 0.24, a protein stability index (pdr5∆) of 3.52 ± 0.13, a protein stability index (san1∆) of 3.4 ± 0.062 and a protein stability index (ubr1∆) of 3.27 ± 0.068.

ERVRLRPEQLSNIIHDE [SNF6]: the protein stability index reads like this: (doa10∆) 1.73 ± 0.06; (pdr5∆) 2.23 ± 0.068; (san1∆) 1.76 ± 0.083; (ubr1∆) 1.99 ± 0.041.

On to DALKVVLRTALVHDGLA [RPS12], for which the protein stability index is, setting by setting: (doa10∆) 2.5 ± 0.17; (pdr5∆) 2.51 ± 0.14; (san1∆) 2.72 ± 0.098; (ubr1∆) 3.25 ± 0.1.
